The source of these data is the Human Domainome abundance scans (Beltran et al. 2025).

B1: Bromodomain adjacent to zinc finger domain protein 2B, residues 1927 to 1982; numbered along this chain, Q9UIF8 (parent)
chain: KSIMKVYCQICRKGDNEELLLLCDGCDKGCHTYCHRPKITTIPDGDWFCPACIAKA

± gives the uncertainty stated by the source.

In the data set the parent is B1. The experiment in a line: abundance fitness (aPCA) (normalised: wild type 0, dead -1); higher = more abundant; growth selection in yeast, the domain comes from the species named. Particulars: Homo sapiens.
Turning to KSIMKVYCQICRKGDNEELKLLCDGCDKGCHTYCHRPKITTIPDGDWFCPACIAKA, the abundance fitness is -0.138 ± 0.14. As for KSIMKVYCQICRKGDNEELVLLCDGCDKGCHTYCHRPKITTIPDGDWFCPACIAKA, the figure is -0.069 ± 0.079; as for KSIMKVYCQICRKGDNEELELLCDGCDKGCHTYCHRPKITTIPDGDWFCPACIAKA, -0.34 ± 0.11. Consider KSIMKVYCQICRKGDNEELRLLCDGCDKGCHTYCHRPKITTIPDGDWFCPACIAKA, for which the abundance fitness was -0.318 ± 0.093. To KSIMKVYCQICRKGDNEELDLLCDGCDKGCHTYCHRPKITTIPDGDWFCPACIAKA belongs -0.566 ± 0.14; to KSIMKVYCQICRKGDNEELTLLCDGCDKGCHTYCHRPKITTIPDGDWFCPACIAKA, -0.094 ± 0.096. On to KSIMKVYCQICRKGDNEELWLLCDGCDKGCHTYCHRPKITTIPDGDWFCPACIAKA, for which the abundance fitness is -0.354 ± 0.14. As to KSIMKVYCQICRKGDNEELFLLCDGCDKGCHTYCHRPKITTIPDGDWFCPACIAKA, the abundance fitness was determined as 0.058 ± 0.13.

As for KSIMKVYCQICRKGDNEELALLCDGCDKGCHTYCHRPKITTIPDGDWFCPACIAKA, the abundance fitness is -0.227 ± 0.076. Turning to KSIMKVYCQICRKGDNEELQLLCDGCDKGCHTYCHRPKITTIPDGDWFCPACIAKA, the abundance fitness is -0.34 ± 0.14. Take KSIMKVYCQICRKGDNEELSLLCDGCDKGCHTYCHRPKITTIPDGDWFCPACIAKA: the abundance fitness is -0.308 ± 0.092. As to KSIMKVYCQICRKGDNEELGLLCDGCDKGCHTYCHRPKITTIPDGDWFCPACIAKA, the abundance fitness was -0.509 ± 0.11. As to KSIMKVYCQICRKGDNEELNLLCDGCDKGCHTYCHRPKITTIPDGDWFCPACIAKA, the abundance fitness was -0.337 ± 0.12. KSIMKVYCQICRKGDNEELMLLCDGCDKGCHTYCHRPKITTIPDGDWFCPACIAKA: the abundance fitness was -0.009 ± 0.13. For KSIMKVYCQICRKGDSEELLLLCDGCDKGCHTYCHRPKITTIPDGDWFCPACIAKA, the abundance fitness is -0.008 ± 0.085. In the case of KSIMKVYCQICRKGDTEELLLLCDGCDKGCHTYCHRPKITTIPDGDWFCPACIAKA, the abundance fitness was -0.017 ± 0.1.

In the case of KSIMKVYCQICRKGDYEELLLLCDGCDKGCHTYCHRPKITTIPDGDWFCPACIAKA, the abundance fitness is -0.032 ± 0.15. As for KSIMKVYCQICRKGDFEELLLLCDGCDKGCHTYCHRPKITTIPDGDWFCPACIAKA, the figure is -0.329 ± 0.15; as for KSIMKVYCQICRKGDIEELLLLCDGCDKGCHTYCHRPKITTIPDGDWFCPACIAKA, -0.098 ± 0.13; as for KSIMKVYCQICRKGDLEELLLLCDGCDKGCHTYCHRPKITTIPDGDWFCPACIAKA, -0.116 ± 0.084.

Regarding KSIMKVYCQICRKGDEEELLLLCDGCDKGCHTYCHRPKITTIPDGDWFCPACIAKA, the abundance fitness stood at 0.018 ± 0.14. For KSIMKVYCQICRKGDHEELLLLCDGCDKGCHTYCHRPKITTIPDGDWFCPACIAKA, the abundance fitness was found to be 0 ± 0.14.

As for KSIMKVYCQICRKGDDEELLLLCDGCDKGCHTYCHRPKITTIPDGDWFCPACIAKA, the abundance fitness turned out to be 0.046 ± 0.21. As for KSIMKVYCQICRKGDAEELLLLCDGCDKGCHTYCHRPKITTIPDGDWFCPACIAKA, the figure is -0.125 ± 0.096; as for KSIMKVYCQICRKGDCEELLLLCDGCDKGCHTYCHRPKITTIPDGDWFCPACIAKA, -0.081 ± 0.1; as for KSIMKVYCQICRKGDVEELLLLCDGCDKGCHTYCHRPKITTIPDGDWFCPACIAKA, -0.181 ± 0.11.

In the case of KSIMKVYCQICRKGDQEELLLLCDGCDKGCHTYCHRPKITTIPDGDWFCPACIAKA, the abundance fitness amounted to 0.01 ± 0.16. Consider KSIMKVYCQICRKGDGEELLLLCDGCDKGCHTYCHRPKITTIPDGDWFCPACIAKA, for which the abundance fitness is -0.014 ± 0.082. As for KSIMKVYCQICRKGDWEELLLLCDGCDKGCHTYCHRPKITTIPDGDWFCPACIAKA, the abundance fitness was -0.183 ± 0.11.

In the case of KSIMKVYCQICRKGDMEELLLLCDGCDKGCHTYCHRPKITTIPDGDWFCPACIAKA, the abundance fitness is -0.165 ± 0.16.

As for KSIMKVYCQICRKGDNEEGLLLCDGCDKGCHTYCHRPKITTIPDGDWFCPACIAKA, the abundance fitness was -0.064 ± 0.08. Turning to KSIMKVYCQICRKGDNEEILLLCDGCDKGCHTYCHRPKITTIPDGDWFCPACIAKA, the abundance fitness was -0.125 ± 0.18. To KSIMKVYCQICRKGDNEERLLLCDGCDKGCHTYCHRPKITTIPDGDWFCPACIAKA belongs -0.078 ± 0.097; to KSIMKVYCQICRKGDNEEVLLLCDGCDKGCHTYCHRPKITTIPDGDWFCPACIAKA, -0.011 ± 0.074. In the case of KSIMKVYCQICRKGDNEENLLLCDGCDKGCHTYCHRPKITTIPDGDWFCPACIAKA, the abundance fitness was 0.027 ± 0.14. KSIMKVYCQICRKGDNEEPLLLCDGCDKGCHTYCHRPKITTIPDGDWFCPACIAKA: the abundance fitness is -0.08 ± 0.13. For the variant KSIMKVYCQICRKGDNEETLLLCDGCDKGCHTYCHRPKITTIPDGDWFCPACIAKA, the abundance fitness was -0.1 ± 0.11. Take KSIMKVYCQICRKGDNEEDLLLCDGCDKGCHTYCHRPKITTIPDGDWFCPACIAKA: the abundance fitness was -0.138 ± 0.13. To KSIMKVYCQICRKGDNEESLLLCDGCDKGCHTYCHRPKITTIPDGDWFCPACIAKA belongs -0.03 ± 0.094; to KSIMKVYCQICRKGDNEECLLLCDGCDKGCHTYCHRPKITTIPDGDWFCPACIAKA, -0.071 ± 0.17. Consider KSIMKVYCQICRKGDNEEFLLLCDGCDKGCHTYCHRPKITTIPDGDWFCPACIAKA, for which the abundance fitness is -0.294 ± 0.17. As to KSIMKVYCQICRKGDNEEKLLLCDGCDKGCHTYCHRPKITTIPDGDWFCPACIAKA, the abundance fitness is -0.016 ± 0.13. Turning to KSIMKVYCQICRKGDNEEELLLCDGCDKGCHTYCHRPKITTIPDGDWFCPACIAKA, the abundance fitness was -0.012 ± 0.093. In the case of KSIMKVYCQICRKGDNEEYLLLCDGCDKGCHTYCHRPKITTIPDGDWFCPACIAKA, the abundance fitness is -0.067 ± 0.18. Consider KSIMKVYCQICRKGDNEEMLLLCDGCDKGCHTYCHRPKITTIPDGDWFCPACIAKA, for which the abundance fitness is 0.061 ± 0.13. As to KSIMKVYCQICRKGDNEEWLLLCDGCDKGCHTYCHRPKITTIPDGDWFCPACIAKA, the abundance fitness was -0.03 ± 0.11.

KSIMKVYCQICRKGDNEEQLLLCDGCDKGCHTYCHRPKITTIPDGDWFCPACIAKA: the abundance fitness stood at 0.137 ± 0.17.
